Patent US20160355586A1 (published 2016)

Biological target: T1, CD16A (human, UniProt P08637 17-208, limits assumed)
T1 construct: Target of the hu3G8 VH/VL variant screen of section 5.1.2; also called FcγRIIIA
Experiment: tetrameric IgG1 with hu3G8VL-1 light chain; binding to CD16A, method not named

T1 sequence (P08637 17-208 limits assumed): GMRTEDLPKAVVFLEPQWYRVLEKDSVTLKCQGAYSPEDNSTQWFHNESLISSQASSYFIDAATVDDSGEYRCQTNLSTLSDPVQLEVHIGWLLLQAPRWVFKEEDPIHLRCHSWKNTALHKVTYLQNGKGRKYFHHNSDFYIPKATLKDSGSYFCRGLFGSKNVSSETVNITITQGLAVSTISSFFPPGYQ

| binding result | Binder |
| --- | --- |
| binds | tetrameric antibody hu3G8VH-1 / hu3G8VL-1 (antibody, IgG1, V domains shown, VH on human Cgamma1 constant region (IgG1)) VH: QVTLRESGPALVKPTQTLTLTCTFSGFSLSTSGMGVGWIRQPPGKALEWLAHIWWDDDKRYNPALKSRLTISKDTSKNQVVLTMTNMDPVDTATYYCARINPAWFAYWGQGTLVTVSS VL: DIVMTQSPDSLAVSLGERATINCKASQSVDFDGDSFMNWYQQKPGQPPKLLIYTTSNLESGVPDRFSGSGSGTDFTLTISSLQAEDVAVYYCQQSNEDPYTFGQGTKLEIK |
| binds | tetrameric antibody hu3G8VH-22 / hu3G8VL-1 (antibody, IgG1, V domains shown, VH on human Cgamma1 (IgG1)) VH: QVTLRESGPALVKPTQTLTLTCTFSGFSLSTSGVGVGWIRQPPGKALEWLAHIWWDDDKRYSPSLKSRLTISKDTSKNQVVLTMTNMDPVDTATYYCARINPAYFAYWGQGTLVTVS VL: DIVMTQSPDSLAVSLGERATINCKASQSVDFDGDSFMNWYQQKPGQPPKLLIYTTSNLESGVPDRFSGSGSGTDFTLTISSLQAEDVAVYYCQQSNEDPYTFGQGTKLEIK |
| binds | tetrameric antibody hu3G8VH-5 / hu3G8VL-1 (antibody, IgG1, V domains shown, VH on human Cgamma1 (IgG1)) VH: QVTLRESGPALVKPTQTLTLTCTFSGFSLSTSGMGVGWIRQPPGKALEWLAHIWWDDDKRYNPALKSRLTISKDTSKNQVVLTMTNMDPVDTATYYCAQINPAWFAYWGQGTLVTVSS VL: DIVMTQSPDSLAVSLGERATINCKASQSVDFDGDSFMNWYQQKPGQPPKLLIYTTSNLESGVPDRFSGSGSGTDFTLTISSLQAEDVAVYYCQQSNEDPYTFGQGTKLEIK |
